Key:
[1] = system: HeLa Kyoto; test: solubility in G1/S (NP-40 vs SDS abundance) (log2 ratio); higher = more soluble; details: cell cycle stage: G1/S
[2] = system: HeLa Kyoto; test: thermal stability score vs G1/S (z-score of summed log2 fold changes over temperatures); higher = more thermally stable than in G1/S
[3] = system: HeLa Kyoto; test: solubility change mitosis vs G1/S (difference of NP-40 vs SDS log2 ratios) (log2 ratio difference); higher = more soluble in mitosis
[4] = system: HeLa Kyoto; test: melting temperature (median over replicates), in situ; higher = more thermally stable
[5] = cell cycle stage: early G1 (4.5 h after nocodazole release)
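For melting temperature (median over replicates), in situ in this document: HeLa Kyoto cells synchronized by double thymidine or nocodazole block, proteins quantified by TMT10plex mass spectrometry, three independent biological replicates.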
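For solubility change mitosis vs G1/S (difference of NP-40 vs SDS log2 ratios) in this document: synchronized HeLa Kyoto cells (double thymidine block for G1/S, nocodazole release for mitosis), protein amounts in NP-40 versus SDS lysates quantified by mass spectrometry, three biological replicates.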
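For solubility in G1/S (NP-40 vs SDS abundance) in this document: HeLa Kyoto cells arrested at G1/S by double thymidine block, proteins quantified by TMT10plex mass spectrometry in mild NP-40 versus SDS extracts, three biological replicates.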
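For thermal stability score vs G1/S (z-score of summed log2 fold changes over temperatures) in this document: synchronized HeLa Kyoto cells, proteins quantified by TMT10plex mass spectrometry, three biological replicates, mitosis taken 0.5 h after nocodazole release, G1/S directly after double thymidine block.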

Sequence of UTP20 (chain, as listed by the source): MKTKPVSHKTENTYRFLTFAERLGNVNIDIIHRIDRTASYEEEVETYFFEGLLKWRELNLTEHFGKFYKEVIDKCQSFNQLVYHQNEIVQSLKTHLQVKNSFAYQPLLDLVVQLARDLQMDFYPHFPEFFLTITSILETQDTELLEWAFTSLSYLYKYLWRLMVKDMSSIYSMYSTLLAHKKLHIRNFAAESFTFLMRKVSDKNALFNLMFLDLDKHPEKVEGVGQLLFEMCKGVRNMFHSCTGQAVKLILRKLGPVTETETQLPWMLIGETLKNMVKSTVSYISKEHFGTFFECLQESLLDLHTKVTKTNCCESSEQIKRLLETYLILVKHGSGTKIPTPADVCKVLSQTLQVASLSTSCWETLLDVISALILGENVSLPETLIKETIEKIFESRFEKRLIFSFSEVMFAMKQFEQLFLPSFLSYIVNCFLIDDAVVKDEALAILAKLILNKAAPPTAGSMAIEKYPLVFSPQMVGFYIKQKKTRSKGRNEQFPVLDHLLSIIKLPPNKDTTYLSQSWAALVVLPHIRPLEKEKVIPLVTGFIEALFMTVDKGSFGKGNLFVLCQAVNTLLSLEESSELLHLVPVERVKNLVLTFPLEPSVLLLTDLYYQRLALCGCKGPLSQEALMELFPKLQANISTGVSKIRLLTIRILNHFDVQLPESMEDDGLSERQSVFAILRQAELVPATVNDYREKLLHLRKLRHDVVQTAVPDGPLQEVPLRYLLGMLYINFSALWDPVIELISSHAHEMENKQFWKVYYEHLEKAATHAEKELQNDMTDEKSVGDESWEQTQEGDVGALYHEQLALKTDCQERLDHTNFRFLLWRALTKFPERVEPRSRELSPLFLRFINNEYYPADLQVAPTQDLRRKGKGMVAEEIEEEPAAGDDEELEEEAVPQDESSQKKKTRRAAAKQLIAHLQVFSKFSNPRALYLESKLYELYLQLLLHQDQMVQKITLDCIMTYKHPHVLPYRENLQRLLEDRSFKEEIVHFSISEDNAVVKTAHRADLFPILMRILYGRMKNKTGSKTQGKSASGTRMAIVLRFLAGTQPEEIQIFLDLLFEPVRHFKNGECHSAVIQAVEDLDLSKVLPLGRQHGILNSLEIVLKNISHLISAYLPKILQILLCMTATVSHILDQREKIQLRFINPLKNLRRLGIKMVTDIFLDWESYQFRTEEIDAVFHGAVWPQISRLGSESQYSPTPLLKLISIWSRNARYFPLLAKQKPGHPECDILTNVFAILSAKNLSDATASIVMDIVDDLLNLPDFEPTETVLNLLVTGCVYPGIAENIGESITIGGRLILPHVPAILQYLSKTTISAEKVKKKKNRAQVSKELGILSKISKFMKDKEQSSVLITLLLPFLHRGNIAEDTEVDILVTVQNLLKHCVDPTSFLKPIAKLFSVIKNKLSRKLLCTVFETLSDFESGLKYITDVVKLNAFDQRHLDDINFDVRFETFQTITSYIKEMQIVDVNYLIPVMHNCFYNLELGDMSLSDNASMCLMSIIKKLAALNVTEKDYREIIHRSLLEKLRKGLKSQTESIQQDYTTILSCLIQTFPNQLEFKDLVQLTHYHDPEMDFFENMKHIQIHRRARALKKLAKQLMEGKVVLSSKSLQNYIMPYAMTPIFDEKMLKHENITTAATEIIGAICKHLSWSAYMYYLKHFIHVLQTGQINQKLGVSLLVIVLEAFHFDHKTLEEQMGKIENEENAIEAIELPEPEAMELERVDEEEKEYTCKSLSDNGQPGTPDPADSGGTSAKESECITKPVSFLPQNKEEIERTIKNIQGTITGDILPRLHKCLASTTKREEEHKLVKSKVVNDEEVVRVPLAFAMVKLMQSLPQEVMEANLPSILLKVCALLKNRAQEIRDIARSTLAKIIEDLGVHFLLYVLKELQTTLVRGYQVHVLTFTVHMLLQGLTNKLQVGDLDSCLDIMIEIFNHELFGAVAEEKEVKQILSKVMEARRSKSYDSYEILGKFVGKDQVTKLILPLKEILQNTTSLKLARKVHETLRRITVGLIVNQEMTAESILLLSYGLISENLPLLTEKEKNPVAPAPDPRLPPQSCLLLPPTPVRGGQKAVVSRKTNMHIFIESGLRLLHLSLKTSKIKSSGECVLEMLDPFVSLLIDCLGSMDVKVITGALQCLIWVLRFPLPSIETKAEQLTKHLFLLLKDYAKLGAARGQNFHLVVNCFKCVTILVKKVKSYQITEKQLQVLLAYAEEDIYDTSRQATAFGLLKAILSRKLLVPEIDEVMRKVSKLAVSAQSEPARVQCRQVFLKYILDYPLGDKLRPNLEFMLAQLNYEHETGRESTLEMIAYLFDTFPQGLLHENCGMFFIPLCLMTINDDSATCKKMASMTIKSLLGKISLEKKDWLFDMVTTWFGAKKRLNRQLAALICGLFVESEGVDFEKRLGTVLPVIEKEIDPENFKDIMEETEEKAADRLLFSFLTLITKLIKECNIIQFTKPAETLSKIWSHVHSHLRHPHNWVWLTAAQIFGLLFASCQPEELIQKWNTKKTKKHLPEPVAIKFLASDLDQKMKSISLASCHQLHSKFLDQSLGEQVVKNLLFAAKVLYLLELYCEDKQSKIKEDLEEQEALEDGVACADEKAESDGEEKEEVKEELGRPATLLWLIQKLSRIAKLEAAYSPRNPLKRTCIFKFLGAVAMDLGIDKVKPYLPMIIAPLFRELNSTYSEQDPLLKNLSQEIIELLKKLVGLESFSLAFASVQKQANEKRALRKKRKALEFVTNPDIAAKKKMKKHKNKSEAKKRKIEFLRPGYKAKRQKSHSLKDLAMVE

Substance	solubility in G1/S (log2) [1]	thermal stability score [2, 5]	thermal stability score ([2]; cell cycle stage: mitosis)	solubility change mitosis (log2) [3]	melting temperature ([4]; cell cycle stage: G1/S) [°C]	melting temperature ([4]; cell cycle stage: mitosis) [°C]
MVQKESQATLEERESELSSNPAASAGASLEPPAAPAPGEDNPAGAGGAAVAGAAGGARRFLCGVVEGFYGRPWVMEQRKELFRRLQKWELNTYLYAPKDDYKHRMFWREMYSVEEAEQLMTLISAAREYEIEFIYAISPGLDITFSNPKEVSTLKRKLDQVSQFGCRSFALLFDDIDHNMCAADKEVFSSFAHAQVSITNEIYQYLGEPETFLFCPTEYCGTFCYPNVSQSPYLRTVGEKLLPGIEVLWTGPKVVSKEIPVESIEEVSKIIKRAPVIWDNIHANDYDQKRLFLGPYKGRSTELIPRLKGVLTNPNCEFEANYVAIHTLATWYKSNMNGVRKDVVMTDSEDSTVSIQIKLENEGSDEDIETDVLYSPQMALKLALTEWLQEFGVPHQYSSRQVAHSGAKASVVDGTPLVAAPSLNATTVVTTVYQEPIMSQGAALSGEPTTLTKEEEKKQPDEEPMDMVVEKQEETDHKNDNQILSEIVEAKMAEELKPMDTDKESIAESKSPEMSMQEDCISDIAPMQTDEQTNKEQFVPGPNEKPLYTAEPVTLEDLQLLADLFYLPYEHGPKGAQMLREFQWLRANSSVVSVNCKGKDSEKIEEWRSRAAKFEEMCGLVMGMFTRLSNCANRTILYDMYSYVWDIKSIMSMVKSFVQWLGCRSHSSAQFLIGDQEPWAFRGGLAGEFQRLLPIDGANDLFFQPPPLTPTSKVYTIRPYFPKDEASVYKICREMYDDGVGLPFQSQPDLIGDKLVGGLLSLSLDYCFVLEDEDGICGYALGTVDVTPFIKKCKISWIPFMQEKYTKPNGDKELSEAEKIMLSFHEEQEVLPETFLANFPSLIKMDIHKKVTDPSVAKSMMACLLSSLKANGSRGAFCEVRPDDKRILEFYSKLGCFEIAKMEGFPKDVVILGRSL [MGEA5]	-0.0358	-1.09	-0.671	-0.112	52.8	52.4
MSAQAQMRAMLDQLMGTSRDGDTTRQRIKFSDDRVCKSHLLNCCPHDVLSGTRMDLGECLKVHDLALRADYEIASKEQDFFFELDAMDHLQSFIADCDRRTEVAKKRLAETQEEISAEVAAKAERVHELNEEIGKLLAKVEQLGAEGNVEESQKVMDEVEKARAKKREAEEVYRNSMPASSFQQQKLRVCEVCSAYLGLHDNDRRLADHFGGKLHLGFIEIREKLEELKRVVAEKQEKRNQERLKRREEREREEREKLRRSRSHSKNPKRSRSREHRRHRSRSMSRERKRRTRSKSREKRHRHRSRSSSRSRSRSHQRSRHSSRDRSRERSKRRSSKERFRDQDLASCDRDRSSRDRSPRDRDRKDKKRSYESANGRSEDRRSSEEREAGEI [LUC7L2]	-0.803	2.1	3.71	0.251	48.6	50.7
CLTC	-0.168	-1.37	1.15	-0.171	51.4	50.6
MPLLFLERFPWPSLRTYTGLSGLALLGTIISAYRALSQPEAGPGEPDQLTASLQPEPPAPARPSAGGPRARDVAQYLLSDSLFVWVLVNTACCVLMLVAKLIQCIVFGPLRVSERQHLKDKFWNFIFYKFIFIFGVLNVQTVEEVVMWCLWFAGLVFLHLMVQLCKDRFEYLSFSPTTPMSSHGRVLSLLVAMLLSCCGLAAVCSITGYTHGMHTLAFMAAESLLVTVRTAHVILRYVIHLWDLNHEGTWEGKGTYVYYTDFVMELTLLSLDLMHHIHMLLFGNIWLSMASLVIFMQLRYLFHEVQRRIRRHKNYLRVVGNMEARFAVATPEELAVNNDDCAICWDSMQAARKLPCGHLFHNSCLRSWLEQDTSCPTCRMSLNIADNNRVREEHQGENLDENLVPVAAAEGRPRLNQHNHFFHFDGSRIASWLPSFSVEVMHTTNILGITQASNSQLNAMAHQIQEMFPQVPYHLVLQDLQLTRSVEITTDNILEGRIQVPFPTQRSDSIRPALNSPVERPSSDQEEGETSAQTERVPLDLSPRLEETLDFGEVEVEPSEVEDFEARGSRFSKSADERQRMLVQRKDELLQQARKRFLNKSSEDDAASESFLPSEGASSDPVTLRRRMLAAAAERRLQKQQTS [AMFR]	-0.387	0.15	-0.174	-0.081	51.3	51.3
MEKTELIQKAKLAEQAERYDDMATCMKAVTEQGAELSNEERNLLSVAYKNVVGGRRSAWRVISSIEQKTDTSDKKLQLIKDYREKVESELRSICTTVLELLDKYLIANATNPESKVFYLKMKGDYFRYLAEVACGDDRKQTIDNSQGAYQEAFDISKKEMQPTHPIRLGLALNFSVFYYEILNNPELACTLAKTAFDEAIAELDTLNEDSYKDSTLIMQLLRDNLTLWTSDSAGEECDAAEGAEN [YWHAQ]	0.435	0.526	2.69	0.372	51.4	52
TCF20	-0.513	0.72	1.03	0.527	–	51.1
MRWILFIGALIGSSICGQEKFFGDQVLRINVRNGDEISKLSQLVNSNNLKLNFWKSPSSFNRPVDVLVPSVSLQAFKSFLRSQGLEYAVTIEDLQALLDNEDDEMQHNEGQERSSNNFNYGAYHSLEAIYHEMDNIAADFPDLARRVKIGHSFENRPMYVLKFSTGKGVRRPAVWLNAGIHSREWISQATAIWTARKIVSDYQRDPAITSILEKMDIFLLPVANPDGYVYTQTQNRLWRKTRSRNPGSSCIGADPNRNWNASFAGKGASDNPCSEVYHGPHANSEVEVKSVVDFIQKHGNFKGFIDLHSYSQLLMYPYGYSVKKAPDAEELDKVARLAAKALASVSGTEYQVGPTCTTVYPASGSSIDWAYDNGIKFAFTFELRDTGTYGFLLPANQIIPTAEETWLGLKTIMEHVRDNLY [CPA4]	0.184	1.94	1.93	0.0829	57.4	58.7
MPILKQLVSSSVHSKRRSRADLTAEMISAPLGDFRHTMHVGRAGDAFGDTSFLNSKAGEPDGESLDEQPSSSSSKRSLLSRKFRGSKRSQSVTRGEREQRDMLGSLRDSALFVKNAMSLPQLNEKEAAEKGTSKLPKSLSSSPVKKANDGEGGDEEAGTEEAVPRRNGAAGPHSPDPLLDEQAFGDLTDLPVVPKATYGLKHAESIMSFHIDLGPSMLGDVLSIMDKEEWDPEEGEGGYHGDEGAAGTITQAPPYAVAAPPLARQEGKAGPDLPSLPSHALEDEGWAAAAPSPGSARSMGSHTTRDSSSLSSCTSGILEERSPAFRGPDRARAAVSRQPDKEFSFMDEEEEDEIRV [CDC42EP4]	0.487	-3.73	-2.19	-0.0259	53.6	51.8
MAAALWGFFPVLLLLLLSGDVQSSEVPGAAAEGSGGSGVGIGDRFKIEGRAVVPGVKPQDWISAARVLVDGEEHVGFLKTDGSFVVHDIPSGSYVVEVVSPAYRFDPVRVDITSKGKMRARYVNYIKTSEVVRLPYPLQMKSSGPPSYFIKRESWGWTDFLMNPMVMMMVLPLLIFVLLPKVVNTSDPDMRREMEQSMNMLNSNHELPDVSEFMTRLFSSKSSGKSSSGSSKTGKSGAGKRR [EMC7]	0.424	-1.44	-0.331	0.0594	54.4	54.1
MVHIKKGELTQEEKELLEVIGKGTVQEAGTLLSSKNVRVNCLDENGMTPLMHAAYKGKLDMCKLLLRHGADVNCHQHEHGYTALMFAALSGNKDITWVMLEAGAETDVVNSVGRTAAQMAAFVGQHDCVTIINNFFPRERLDYYTKPQGLDKEPKLPPKLAGPLHKIITTTNLHPVKIVMLVNENPLLTEEAALNKCYRVMDLICEKCMKQRDMNEVLAMKMHYISCIFQKCINFLKDGENKLDTLIKSLLKGRASDGFPVYQEKIIRESIRKFPYCEATLLQQLVRSIAPVEIGSDPTAFSVLTQAITGQVGFVDVEFCTTCGEKGASKRCSVCKMVIYCDQTCQKTHWFTHKKICKNLKDIYEKQQLEAAKEKRQEENHGKLDVNSNCVNEEQPEAEVGISQKDSNPEDSGEGKKESLESEAELEGLQDAPAGPQVSEE [ANKMY2]	0.124	-0.173	-0.528	-0.16	50.1	–
MNHSERFVFIAEWYDPNASLLRRYELLFYPGDGSVEMHDVKNHRTFLKRTKYDNLHLEDLFIGNKVNVFSRQLVLIDYGDQYTARQLGSRKEKTLALIKPDAISKAGEIIEIINKAGFTITKLKMMMLSRKEALDFHVDHQSRPFFNELIQFITTGPIIAMEILRDDAICEWKRLLGPANSGVARTDASESIRALFGTDGIRNAAHGPDSFASAAREMELFFPSSGGCGPANTAKFTNCTCCIVKPHAVSEGLLGKILMAIRDAGFEISAMQMFNMDRVNVEEFYEVYKGVVTEYHDMVTEMYSGPCVAMEIQQNNATKTFREFCGPADPEIARHLRPGTLRAIFGKTKIQNAVHCTDLPEDGLLEVQYFFKILDN [NME7]	-0.32	0.587	0.668	0.0736	48.9	48.8
MACGFRRAIACQLSRVLNLPPENLITSISAVPISQKEEVADFQLSVDSLLEKDNDHSRPDIQVQAKRLAEKLRCDTVVSEISTGQRTVNFKINRELLTKTVLQQVIEDGSKYGLKSELFSGLPQKKIVVEFSSPNVAKKFHVGHLRSTIIGNFIANLKEALGHQVIRINYLGDWGMQFGLLGTGFQLFGYEEKLQSNPLQHLFEVYVQVNKEAADDKSVAKAAQEFFQRLELGDVQALSLWQKFRDLSIEEYIRVYKRLGVYFDEYSGESFYREKSQEVLKLLESKGLLLKTIKGTAVVDLSGNGDPSSICTVMRSDGTSLYATRDLAAAIDRMDKYNFDTMIYVTDKGQKKHFQQVFQMLKIMGYDWAERCQHVPFGVVQGMKTRRGDVTFLEDVLNEIQLRMLQNMASIKTTKELKNPQETAERVGLAALIIQDFKGLLLSDYKFSWDRVFQSRGDTGVFLQYTHARLHSLEETFGCGYLNDFNTACLQEPQSVSILQHLLRFDEVLYKSSQDFQPRHIVSYLLTLSHLAAVAHKTLQIKDSPPEVAGARLHLFKAVRSVLANGMKLLGITPVCRM [RARS2]	-0.144	-0.261	-0.261	-0.141	51.7	50.8
MAASVEQREGTIQVQGQALFFREALPGSGQARFSVLLLHGIRFSSETWQNLGTLHRLAQAGYRAVAIDLPGLGHSKEAAAPAPIGELAPGSFLAAVVDALELGPPVVISPSLSGMYSLPFLTAPGSQLPGFVPVAPICTDKINAANYASVKTPALIVYGDQDPMGQTSFEHLKQLPNHRVLIMKGAGHPCYLDKPEEWHTGLLDFLQGLQ [ABHD14B]	0.421	-0.635	-1.1	-0.165	52.9	52.7
MSNSRPRSRRDAGGGAGAAGRDELVSRSLQSAEHCLGVQDFGTAYAHYLLVLSLAPELKHDVKETFQYTLFRWAEELDALSRIQDLLGCYEQALELFPDDEVICNSMGEHLFRMGFRDEAAGYFHKAVKLNPDFSDAKENFYRVANWLVERWHFIMLNDTKRNTIYNAAIQKAVCLGSKSVLDIGAGTGILSMFAKKAGAHSVYACELSKTMYELACDVVAANKMEAGIKLLHTKSLDIEIPKHIPERVSLVVTETVDAGLFGEGIVESLIHAWEHLLLQPKTKGESANCEKYGKVIPASAVIFGMAVECAEIRRHHRVGIKDIAGIHLPTNVKFQSPAYSSVDTEETIEPYTTEKMSRVPGGYLALTECFEIMTVDFNNLQELKSLATKKPDKIGIPVIKEGILDAIMVWFVLQLDDEHSLSTSPSEETCWEQAVYPVQDLADYWIKPGDHVMMEVSCQDCYLRIQSISVLGLECEMDVAKSFTQNKDLLSLGNEAELCSALANLQTSKPDAVEQTCILESTEIALLNNIPYHEGFKMAMSKVLSSLTPEKLYQTMDTHCQNEMSSGTGQSNTVQNILEPFYVLDVSEGFSVLPVIAGTLGQVKPYSSVEKDQHRIALDLISEANHFPKETLEFWLRHVEDESAMLQRPKSDKLWSIIILDVIEPSGLIQQEIMEKAAISRCLLQSGGKIFPQYVLMFGLLVESQTLLEENAVQGTERTLGLNIAPFINQFQVPIRVFLDLSSLPCIPLSKPVELLRLDLMTPYLNTSNREVKVYVCKSGRLTAIPFWYHMYLDEEIRLDTSSEASHWKQAAVVLDNPIQVEMGEELVLSIQHHKSNVSITVKQ [PRMT9]	-0.21	0.367	0.336	-0.0806	50.8	51.1
UTP20	-1.01	1.17	5.97	0.363	47.3	50.7

— the supplement of paper PMC5998384
